This passage reports Fold Decrease in Anti-HIV activity (IC50 of mutant / IC50 of wild-type BanLec), IC50(nM), inhibition of infection of TZM-bl cells by pseudotyped HIV-1 and IC50 of inhibition of HIV-1 replication in MDM, 7 days results from US8865867.

One test has as its target HIV-1 consensus subtype C envelope (HIV-1). Nature of the test: cell-based or functional assay.
With BanLec H84A, the Fold Decrease in Anti-HIV activity (IC50 of mutant / IC50 of wild-type BanLec) was 2.5 fold and the IC50(nM), inhibition of infection of TZM-bl cells by pseudotyped HIV-1 is 0.7 nM. For BanLec H84M the same measures were 21 fold and 7.7 nM.

Substance BanLec H84S displayed a Fold Decrease in Anti-HIV activity (IC50 of mutant / IC50 of wild-type BanLec) of 4.1 fold and an IC50(nM), inhibition of infection of TZM-bl cells by pseudotyped HIV-1 of 1.6 nM. For BanLec H84T the same measures were 23 fold and 7 nM. The substance BanLec H84Y had an IC50(nM), inhibition of infection of TZM-bl cells by pseudotyped HIV-1 of 0.29 nM.

In a further test the target is HIV-1 envelope (isolate used on monocyte-derived macrophages, not named) (HIV-1). Nature of the test: cell-based or functional assay.
The substance BanLec returned an IC50 of inhibition of HIV-1 replication in MDM, 7 days of 9.72 nM.
